# Key:
# [1] = target: human FcγRIIa (human) (UniProt P12318); experiment: SPR; steady-state equilibrium binding assay on ProteOn; human Fcγ receptors
# [2] = target: human FcRn (human) (UniProt P55899); experiment: SPR; steady-state equilibrium binding assay on ProteOn; human FcRn at pH 6
# UniProt P55899, sequence (P55899 24-365): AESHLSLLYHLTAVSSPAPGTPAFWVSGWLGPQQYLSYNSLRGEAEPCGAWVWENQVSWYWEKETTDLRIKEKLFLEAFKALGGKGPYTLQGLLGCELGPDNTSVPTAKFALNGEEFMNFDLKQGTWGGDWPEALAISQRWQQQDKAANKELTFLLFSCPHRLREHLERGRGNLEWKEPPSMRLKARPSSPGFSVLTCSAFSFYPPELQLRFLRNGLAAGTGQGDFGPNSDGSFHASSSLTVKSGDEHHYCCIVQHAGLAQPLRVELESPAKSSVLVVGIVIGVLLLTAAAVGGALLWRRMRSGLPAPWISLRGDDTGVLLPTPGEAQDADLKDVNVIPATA
# UniProt P12318, sequence (P12318 34-317): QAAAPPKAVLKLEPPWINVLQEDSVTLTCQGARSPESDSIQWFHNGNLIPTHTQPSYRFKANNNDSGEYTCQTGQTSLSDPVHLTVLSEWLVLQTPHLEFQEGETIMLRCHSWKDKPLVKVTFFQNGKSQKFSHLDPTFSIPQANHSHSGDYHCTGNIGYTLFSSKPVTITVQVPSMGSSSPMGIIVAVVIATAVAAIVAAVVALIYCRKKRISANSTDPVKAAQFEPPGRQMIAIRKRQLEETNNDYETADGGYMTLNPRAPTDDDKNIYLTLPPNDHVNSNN
substance,measurement,setting,value
isotype control of human IgG4 S228P (antibody),Kd,[1],1.4 µM
same,Kd,[2],6.2 µM
